# Experimental data: patent publication US20260242478A1 (published 2026)
# B1: Phage-72, clonal phage peptide MFWCPTTMWNRCFT (peptide)
# peptide: MFWCPTTMWNRCFT
# notes: tested as crude clonal phage supernatant; not shown: pIII of the bacteriophage to which the peptide is fused
# B2: Phage-87, clonal phage peptide MDWCPKDLWYLCFA (peptide)
# peptide: MDWCPKDLWYLCFA
# notes: as for B1
# B3: Phage-84, clonal phage peptide MDWCPKYLWSVCFF (peptide)
# peptide: MDWCPKYLWSVCFF
# notes: as for B1
# B4: Phage-78, clonal phage peptide MDWCPRHLWHECFN (peptide)
# peptide: MDWCPRHLWHECFN
# notes: as for B1
# B5: Phage-86, clonal phage peptide MDWCPRHLWAECFF (peptide)
# peptide: MDWCPRHLWAECFF
# notes: as for B1
# B6: Phage-73, clonal phage peptide MDWCPRALWHECFN (peptide)
# peptide: MDWCPRALWHECFN
# notes: as for B1
# B7: Phage-92, clonal phage peptide MDWCPRHLWHECFF (peptide)
# peptide: MDWCPRHLWHECFF
# notes: as for B1
# B8: Phage-74, clonal phage peptide MDWCPRDMWLFCYN (peptide)
# peptide: MDWCPRDMWLFCYN
# notes: as for B1
# B9: Phage-88, clonal phage peptide MDWCPIHLWHYCFN (peptide)
# peptide: MDWCPIHLWHYCFN
# notes: as for B1
# B10: Phage-85, clonal phage peptide MDWCPMDLWYQCFN (peptide)
# peptide: MDWCPMDLWYQCFN
# notes: as for B1
# B11: Phage-90, clonal phage peptide MDWCPIDLWHLCFY (peptide)
# peptide: MDWCPIDLWHLCFY
# notes: as for B1
# B12: Phage-76, clonal phage peptide MDWCPRYLWSDCFA (peptide)
# peptide: MDWCPRYLWSDCFA
# notes: as for B1
# B13: Phage-83, clonal phage peptide … (peptide)
# peptide: MDWCPRFLWDECFN
# notes: as for B1
# B14: Phage-82, clonal phage peptide MDWCPRDLWTECFA (peptide)
# peptide: MDWCPRDLWTECFA
# notes: as for B1
# B15: Phage-77, clonal phage peptide MDWCPFYLWDECFN (peptide)
# peptide: MDWCPFYLWDECFN
# notes: as for B1
# B16: Phage-70, clonal phage peptide ITWCPSSMWNRCFI (peptide)
# peptide: ITWCPSSMWNRCFI
# notes: as for B1
# B17: Phage-91, clonal phage peptide … (peptide)
# peptide: MDWCPRDLWFLCYN
# notes: as for B1
# B18: Phage-89, clonal phage peptide MDWCPRALWNVCFN (peptide)
# peptide: MDWCPRALWNVCFN
# notes: as for B1
# B19: Phage-69, clonal phage peptide MDWCPIHMWADCFA (peptide)
# peptide: MDWCPIHMWADCFA
# notes: as for B1
# B20: Phage-79, clonal phage peptide MDWCPRDLWHECFS (peptide)
# peptide: MDWCPRDLWHECFS
# notes: as for B1
# B21: Phage-75, clonal phage peptide MDWCPRSHWHVCYN (peptide)
# peptide: MDWCPRSHWHVCYN
# notes: as for B1
# B22: Phage-71, clonal phage peptide MDWCPRYLWHECFA (peptide)
# peptide: MDWCPRYLWHECFA
# notes: as for B1
# B23: Phage-214 (peptide)
# peptide: MDWCPTYMWSECFN
# notes: tested as crude clonal phage supernatant
# B24: Phage-216 (peptide)
# peptide: MDWCPMNMWYQCFN
# notes: as for B23
# B25: Phage-213 (peptide)
# peptide: MNWCPSYMWDQCFA
# notes: as for B23
# B26: Phage-208 (peptide)
# peptide: MDWCPTDMWIVCFA
# notes: as for B23
# B27: Phage-222 (peptide)
# peptide: MDWCPRDQWHNCFN
# notes: as for B23
# B28: Phage-207 (peptide)
# peptide: MDWCPRAMWHECFY
# notes: as for B23
# B29: Phage-205 (peptide)
# peptide: MDWCPTDMWHHCFL
# notes: as for B23
# B30: Phage-200 (peptide)
# peptide: MFWCPFDMWHFCFN
# notes: as for B23
# B31: Phage-199 (peptide)
# peptide: MDWCPRNMWAQCFA
# notes: as for B23
# B32: Phage-219 (peptide)
# peptide: NYWCPSSMWNRCLH
# notes: as for B23
# B33: Phage-218 (peptide)
# peptide: TFGCPTTMWNRCFA
# notes: as for B23
# B34: Phage-206 (peptide)
# peptide: IHWCPINMWDKCYN
# notes: as for B23
# B35: Phage-212 (peptide)
# peptide: MDWCPRAMWDKCFF
# notes: as for B23
# B36: Phage-210 (peptide)
# peptide: MDWCPRDMWFECFA
# notes: as for B23
# B37: Phage-201 (peptide)
# peptide: MDWCPRDMWDQCFD
# notes: as for B23
# B38: Phage-220 (peptide)
# peptide: FDFCPTTMWTYCQH
# notes: as for B23
# B39: Phage-209 (peptide)
# peptide: IDWCPQDMWFYCFN
# notes: as for B23
# B40: Phage-198 (peptide)
# peptide: MDWCPRAMWNHCFN
# notes: as for B23
# B41: Phage-197 (peptide)
# peptide: MDWCPRHMWYECFF
# notes: as for B23
# B42: Phage-215 (peptide)
# peptide: MDWCPRYMWNECFN
# notes: as for B23
# B43: Phage-203 (peptide)
# peptide: MSWCPRDMWFYCYA
# notes: as for B23
# B44: Phage-202 (peptide)
# peptide: MFWCPMDMWDQCFN
# notes: as for B23
# B45: Phage-204 (peptide)
# peptide: MDWCPRHMWNVCFS
# notes: as for B23
# B46: Phage-217 (peptide)
# peptide: MDWCPWDMWDKCFN
# notes: as for B23
# B47: Phage-221 (peptide)
# peptide: TTWCPTSMWLHCFD
# notes: as for B23
# Target: T1, anti-CD28 scFv (VH - linker 1 - VL) (biotinylated (site not given))
# Test: phage ELISA as before, wells pre-incubated with soluble CD28 (competitor)
# Method: (§1) Clonal phage were harvested as crude supernatants and screened via standard enzyme linked immunosorbent assays (ELISAs). […] Prior to the addition of clonal phage, wells were incubated with blocking buffer and CD28 soluble protein or blocking buffer alone. Without washing or aspirating, clonal phage supernatants were then added to the wells and incubated for a short time. Wells were then washed followed by detection of bound phage using a horse radish peroxidase conjugated anti-M13 antibody.
# T1 sequence (scFv, as listed by the source): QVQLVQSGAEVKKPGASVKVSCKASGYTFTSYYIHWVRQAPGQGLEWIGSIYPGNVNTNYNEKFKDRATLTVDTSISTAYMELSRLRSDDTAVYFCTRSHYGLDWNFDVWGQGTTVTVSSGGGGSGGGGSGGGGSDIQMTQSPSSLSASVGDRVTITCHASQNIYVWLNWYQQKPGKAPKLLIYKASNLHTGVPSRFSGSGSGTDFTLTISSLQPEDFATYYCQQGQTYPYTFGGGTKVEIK
row,Binder,CD28 scFv signal in presence of CD28
1,B1,0.338
2,B2,0.213
3,B3,0.826
4,B4,0.704
5,B5,0.292
6,B6,0.401
7,B7,0.373
8,B8,1.02
9,B9,0.453
10,B10,0.187
11,B11,0.488
12,B12,1.53
13,B13,0.483
14,B14,0.151
15,B15,0.291
16,B16,0.11
17,B17,0.424
18,B18,0.472
19,B19,0.143
20,B20,0.382
21,B21,0.281
22,B22,0.429

# Target: T2, Anti-CD28 scFv (VH - linker 1 - VL) (biotinylated (site not stated))
# T2 construct: Biotinylated anti-CD28 scFv captured on neutravidin coated plates in the panning ELISA
# Test: phage ELISA as above; wells pre-incubated with soluble CD28 as competitor;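 note: crude clonal phage supernatants tested, with bound phage detected by HRP-conjugated anti-M13 antibody, and reference wells given blocking buffer without CD28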
# T2 sequence (scFv, as listed by the source): as above
row,Binder,CD28 scFv signal in presence of CD28
1,MDWCPRSLWNYCFN (Clonal phage of the Peptide-9 library) [Phage-313],0.209
2,MDWCPRSLWNYCFA (Clonal phage of the Peptide-9 library) [Phage-316],0.198
3,MDWCPRDLWDECFN (Clonal phage of the Peptide-9 library) [Phage-310],0.248
4,MDWCPIHLWNECFN (Clonal phage of the Peptide-9 library) [Phage-314],0.157
5,MDWCPRDLWYQCFN (Clonal phage of the Peptide-9 library) [Phage-311],0.609

# Target: T3, anti-CD28 scFv (VH - linker 1 - VL) (biotinylated (site not stated))
# T3 construct: Captured as biotinylated scFv on neutravidin coated plates in the clonal phage ELISA
# Test: clonal phage ELISA; captured anti-CD28 scFv pre-incubated with soluble CD28 (competitor), anti-M13-HRP detection;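 note: crude clonal phage supernatants added to wells pretreated with soluble CD28 in blocking buffer, compared against wells given blocking buffer only, then bound phage measured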
# T3 sequence (scFv, as listed by the source): as above
row,Binder,CD28 scFv signal in presence of CD28
1,B23,0.107
2,B24,0.137
3,B25,0.105
4,B26,0.172
5,B27,0.078
6,B28,0.129
7,B29,0.126
8,B30,0.469
9,B31,0.209
10,B32,0.088
11,B33,0.068
12,B34,0.203
13,B35,0.094
14,B36,0.143
15,B37,0.119
16,B38,0.081
17,B39,0.16
18,B40,0.426
19,B41,0.298
20,B42,0.128
21,B43,0.174
22,B44,0.207
23,B45,0.13
24,B46,0.108
25,B47,0.072

# Target: T1, anti-CD28 scFv (VH - linker 1 - VL)
# Test: phage ELISA; biotinylated anti-CD28 scFv on neutravidin plate, clonal phage supernatant, anti-M13-HRP detection;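 note: before phage addition, wells were pretreated with soluble CD28 protein in blocking buffer, or with blocking buffer only as the comparison, then phage were added without washing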
# Method: as §1
row,Binder,CD28 scFv signal
1,B1,0.662
2,B2,2.61
3,B3,2.62
4,B4,2.65
5,B5,2.61
6,B6,2.69
7,B7,2.58
8,B8,2.71
9,B9,2.6
10,B10,2.62
11,B11,2.59
12,B12,2.73
13,B13,2.63
14,B14,2.63
15,B15,2.67
16,B16,0.379
17,B17,2.59
18,B18,2.6
19,B19,2.46
20,B20,2.65
21,B21,1.95
22,B22,2.63

# Target: T2, Anti-CD28 scFv (VH - linker 1 - VL)
# Test: phage ELISA; biotinylated anti-CD28 scFv on neutravidin plate, clonal phage supernatant, anti-M13-HRP;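 note: before the phage were added, wells were pre-incubated with soluble CD28 protein in blocking buffer, or with blocking buffer alone, and were not washed in between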
row,Binder,CD28 scFv signal
1,MDWCPRSLWNYCFN (Clonal phage of the Peptide-9 library) [Phage-313],2.35
2,MDWCPRSLWNYCFA (Clonal phage of the Peptide-9 library) [Phage-316],2.32
3,MDWCPRDLWDECFN (Clonal phage of the Peptide-9 library) [Phage-310],2.37
4,MDWCPIHLWNECFN (Clonal phage of the Peptide-9 library) [Phage-314],2.35
5,MDWCPRDLWYQCFN (Clonal phage of the Peptide-9 library) [Phage-311],2.35

# Target: T3, anti-CD28 scFv (VH - linker 1 - VL)
# Test: clonal phage ELISA; biotinylated anti-CD28 scFv on neutravidin plate, anti-M13-HRP detection;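 note: crude supernatants of phage clones were tested in wells pretreated with blocking buffer either alone or supplemented with soluble CD28 protein before phage addition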
# Method: as §1
row,Binder,CD28 scFv signal
1,B23,0.754
2,B24,0.639
3,B25,0.854
4,B26,1.5
5,B27,0.2
6,B28,1.92
7,B29,2.2
8,B30,2.29
9,B31,2.31
10,B32,0.158
11,B33,0.181
12,B34,2.08
13,B35,0.985
14,B36,1.31
15,B37,2.29
16,B38,0.086
17,B39,1.42
18,B40,2.33
19,B41,2.34
20,B42,0.687
21,B43,2.25
22,B44,2.26
23,B45,2.25
24,B46,0.586
25,B47,0.074
